Laboratory results reported in patent US20240166745A1 (Eli Lilly, published 2024).
Where a chain is given by its changes, count along the chain named. Each block holds one binder with its values, some of them ahead of it.

Columns and labels:
[1] = molecular target: T1, Cynomolgus PD-1-ECD (cynomolgus, UniProt B0LAJ3 25-170); assay: SPR (Biacore T200), antibody captured on PrismA chip, ECD as analyte, 37° C.
T1 construct: commercial protein; also called cynomolgus PD-1-ECD (Sino Biologicals, Cat #90311-C08H); not shown: C-terminal polyhistidine tag of the vendor product (Sino Biological 90311-C08H)
Method: (§1) A Biacore® T200 (Cytiva, Marlborough, MA) was used to measure the binding kinetics and affinities of the LAG-3 antibody to the LAG-3 soluble extracellular domain (ECD) and the bispecific antibody to soluble LAG-3-ECD and PD-1-ECD (human: Sino Biologicals, Cat #10377-H08H; cynomolgus: Sino Biologicals, Cat #90311-C08H) by surface plasmon resonance. Samples were diluted in HBS-EP+ (10 mM Hepes, 150 mM NaCl, 3 mM EDTA, 0.05% Tween-20, pH 7.6) (Teknova Cat #H8022) with 5 g/L of BSA (Jackson ImmunoResearch Cat #001-000-161) running buffer. PrismA Series S Sensor chip (Cat #29650263) is purchased from Cytiva.
(§2) Binding was evaluated using multi-cycle kinetics by an antibody capture method. Each cycle was performed at either 37° C. or 25° C. at a flow rate of 10 μL/min for antibody capture to the PrismA chip and 100 μL/min for analyte association (with 120 sec contact time) and dissociation (900 sec). Each cycle consisted of the following steps: injection of bispecific antibody at 1 μg/mL in HBS-EP+ targeting Rmax values of 125 RU (LAG-3 arm), 294 RU (PD-1 arm) and 63 RU (LAG-3 antibody) on flow cell, injection of analyte in HBS-EP+(concentration range of 62.5 nM to 0.25 nM by two-fold serial dilution for both human PD-1-ECD-His (SEQ ID NO: 40) and human LAG-3-His (SEQ ID NO: 42) followed by 900-second dissociation phase, and regeneration using 10 μL of 10 mM glycine hydrochloride, pH 1.5 over a 60-second contact time utilizing a 10 μL/min flow rate. All analyte concentrations were determined utilizing monomeric molecular weight (MW) values. Association rates (kₒₙ) and dissociation rates (koff) for LAG-3-ECD and PD-1-ECD were evaluated using double referencing by flow-cell one reference subtraction in addition to 0 nM blank subtraction and fit to “1:1 (Langmuir) binding” model in the BIAevaluation software version 4.1. The dissociation constant (KD) was calculated from the binding kinetics according to the relationship KD=Koff/Kₒₙ. Stoichiometry=[RUₘₐₓ/RUcaptured]/[MWanalyte/MWantibody] where MWAntibodyA is 150 kDa. Values are reported as mean±standard deviation.

[2] = molecular target: T2, Human PD-1 ECD-His (human, UniProt Q15116 25-167); assay: as above
T2 construct: Soluble analyte in SPR; the entry includes the His tag
Method: as §1, §2

[3] = molecular target: T2, Human PD-1 ECD-His; assay: SPR (Biacore T200), antibody captured on PrismA chip, ECD as analyte, 25° C.; 25° C.
Method: as §1
(§3) Binding was evaluated using multi-cycle kinetics by an antibody capture method. […] Each cycle consisted of the following steps: injection of bispecific antibody at 1 μg/mL in HBS-EP+ targeting Rmax values of 125 RU (LAG-3 arm), 294 RU (PD-1 arm) and 63 RU (LAG-3 antibody) on flow cell, injection of analyte in HBS-EP+(concentration range of 62.5 nM to 0.25 nM by two-fold serial dilution for both human PD-1-ECD-His (SEQ ID NO: 40) and human LAG-3-His (SEQ ID NO: 42) followed by 900-second dissociation phase, and regeneration using 10 μL of 10 mM glycine hydrochloride, pH 1.5 over a 60-second contact time utilizing a 10 μL/min flow rate. All analyte concentrations were determined utilizing monomeric molecular weight (MW) values. […]

[4] = molecular target: T3, Human LAG-3 ECD-His (human, UniProt P18627 23-449); assay: SPR (Biacore T200), antibody captured on PrismA chip, ECD as analyte, 37° C.
T3 construct: Soluble analyte in SPR; the entry includes linker and His tag; also called human LAG-3-His
T3 sequence: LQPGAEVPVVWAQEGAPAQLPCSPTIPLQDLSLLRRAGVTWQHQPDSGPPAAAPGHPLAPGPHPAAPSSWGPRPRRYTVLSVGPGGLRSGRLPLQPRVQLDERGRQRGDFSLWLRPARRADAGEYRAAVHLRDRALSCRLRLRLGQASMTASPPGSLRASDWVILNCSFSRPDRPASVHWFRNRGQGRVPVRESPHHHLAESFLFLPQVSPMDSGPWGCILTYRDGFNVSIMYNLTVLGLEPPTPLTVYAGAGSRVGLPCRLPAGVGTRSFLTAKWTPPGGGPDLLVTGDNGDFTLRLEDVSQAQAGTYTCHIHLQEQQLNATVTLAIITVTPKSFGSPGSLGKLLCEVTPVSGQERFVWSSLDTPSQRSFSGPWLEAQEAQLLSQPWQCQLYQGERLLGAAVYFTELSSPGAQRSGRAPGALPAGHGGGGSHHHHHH
Method: as §1, §2

[5] = molecular target: T1, Cynomolgus PD-1-ECD; assay: SPR (Biacore T200), antibody captured on PrismA chip, ECD as analyte; temperature unclear: the 37° C. label is printed only at r14, by the order of Table 3a probably 37° C.
Method: as §1, §2

[6] = molecular target: T2, Human PD-1 ECD-His; assay: as above
Method: as §1, §2

[7] = molecular target: T2, Human PD-1 ECD-His; assay: SPR (Biacore T200), antibody captured on PrismA chip, ECD as analyte; temperature unclear: the 37° C. label is printed only at r14, by the order of Table 3a probably 37° C.; 37° C. (label printed late, at r14)
Method: as §1, §3

T1 sequence (B0LAJ3 entry or part of it limits assumed): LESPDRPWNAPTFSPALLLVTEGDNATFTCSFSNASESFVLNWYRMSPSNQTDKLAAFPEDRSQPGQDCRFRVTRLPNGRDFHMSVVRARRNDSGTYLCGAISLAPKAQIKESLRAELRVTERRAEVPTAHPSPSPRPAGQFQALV
T2 sequence (Q15116 other isoform, or with tags, fused parts or gaps): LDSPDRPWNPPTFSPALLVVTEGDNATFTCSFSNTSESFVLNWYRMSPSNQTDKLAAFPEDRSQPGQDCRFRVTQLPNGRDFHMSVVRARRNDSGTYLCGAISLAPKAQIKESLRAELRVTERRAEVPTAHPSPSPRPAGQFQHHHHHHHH

- Kd [1]: 3.5 nM
- koff [1]: 0.0087 s⁻¹
- kon [1]: 2.5e+06 M⁻¹ s⁻¹
- Kd [2]: 0.66 nM
- koff [2]: 0.0017 s⁻¹
- kon [2]: 2.5e+06 M⁻¹ s⁻¹
- kon [3]: 750000 M⁻¹ s⁻¹
B1: Antibody A (bispecific antibody, human IgG1, kappa, lambda)
heavy 1: not shown
light 1: DIVMTQTPLSLPVTPGEPASISCRSSQSLLDSAEGSTYLDWFLRKPGDSPQLLIYTLSYRASGVPDRFSGSGSGTDFTLKISRVEAEDVGVYYCMQRVEFPYTFGQGTKVEIKRTVAAPSVFIFPPSKEQLKSGTASVVCLLNNFYPREAKVQWKVDNALQSGNSQESVTEQDSKDSTYSLSSTLTLSKADYEKHKVYACEVTHQGLSSPVTKSFNRGEC
heavy 2: QVQLVQSGAEVKKPGASVKVSCKVSGYSLSKYDMSWVRKAPGKGLEWMGIIYTSGYTDYAQEFQGRVTMTEDTSTDTAYMELSSLRSEDTAVYYCATGNPYYTNGFNSWGQGTLVTVSSASTKGPSVFPLAPSSKSTSGGTAALGCLVKDYFPEPVTVSWNSGALTSGVATGPAVLQSSGLYSLSSVVTVPSSSLGTQTYICNVNHKPSNTKVDKRVEPKSCDKTHTCPPCPAPELLGGPSVFLFPPKPKDTLMISRTPEVTCVVVDVSHEDPEVKFNWYVDGVEVHNAKTKPREEQYNSTYRVVSVLTVLHQDWLNGKEYKCKVSNKALPAPIEKTISKAKGQPREPQVYTLPPSREEMTDNQVSLTCLVKGFYPSDIAVEWESNGQPENNYKTTPPVLMSDGSFFLASKLTVDKSRWQQGNVFSCSVMHEALHNHYTQKSLSLSPGK
light 2: RIQMTQSPSSLSASVGDRVTITCQASQSPNNLLAWYQDKPGKAPKLLIYGASDLPSGVPSRFSGSGSGTDFTLTISSLQPEDFATYYCQNNYYVGPVSYAFGGGTKVEIKGQPKAAPSVTLFPPSSEELQANKATLVCYISDFYPGAVTVAWKADSSPVKAGVETTTPSKQSNNKYAAWSYLSLTPEQWKSHRSYSCQVTHEGSTVEKTVAPTEC
notes: IgG-like bispecific with one LAG-3 arm and one PD-1 arm; also called human LAG-3/human PD-1 dual agonist bispecific antibody

- Kd [4]: 6.1 nM
- koff [4]: 0.34 s⁻¹
- kon [4]: 5.5e+07 M⁻¹ s⁻¹
- Kd [5]: 3.1 nM
- koff [5]: 0.0088 s⁻¹
- kon [5]: 2.8e+06 M⁻¹ s⁻¹
- Kd [6]: 0.65 nM
- koff [6]: 0.0015 s⁻¹
- kon [7]: 2.4e+06 M⁻¹ s⁻¹
B2: Antibody B (bispecific antibody, human IgG1, kappa, lambda)
heavy 1: not shown
light 1: B1 light 1
heavy 2: B1 heavy 2 with K324A
light 2: B1 light 2
notes: also called human LAG-3/human PD-1 dual agonist bispecific antibody
